In patent US20220226382A1, “Nutritional Composition” (MORINAGA MILK INDUSTRY CO., LTD., priority 2019, published 2022):

Test system: simian rotavirus SA11 strain
Assay: Plaque assay: antiviral action against simian rotavirus in MA104 cells (infection-suppressing ratio)
Type: cell-based
Settings: LF alone, n=3
Procedure: The simian rotavirus SA11 strain (Nihon Bioresearch Inc.) was inoculated to the MA104 cells (Sigma-Aldrich) of African green monkey kidney maintained in a minimum essential medium (Sigma-Aldrich, henceforth referred to simply as “medium”). The simian rotavirus SA11 strain, for example, can be obtained from American Type Culture Collection (ATCC) as ATCC VR-1565. To the medium, lactoferrin (LF) and/or the human milk oligosaccharide(s) shown below were added beforehand alone or in combination at the following concentrations, respectively (n=3).
LF (produced by Morinaga Milk Industry Co., Ltd.): 0, 0.1 or 1.0 mg/mL
2′-Fucosyllactose (2′-FL, Funakoshi Co., Ltd.): 0, 0.1, 0.5, or 2.5 mg/mL
3-Fucosyllactose (3-FL, Funakoshi Co., Ltd.): 0, 0.1, or 0.5 mg/mL
3′-Sialyllactose (3′-SL, Funakoshi Co., Ltd.): 0, 0.1, or 0.5 mg/mL
6′-Sialyllactose (6′-SL, Funakoshi Co., Ltd.): 0, 0.1, or 0.5 mg/mL […]
Degree of infection was evaluated based on the number of “plaques” formed when the cells were infected with the virus. Specifically, the antiviral effects of lactoferrin and human milk oligosaccharides were evaluated based on “plaque-suppressing ratio (%)”, i.e., the ratio of “plaque counts observed with lactoferrin and/or human milk oligosaccharide(s) supplementation” to “plaque counts observed without these supplementation”. […]

B1: lactoferrin (protein, UniProt P24627 20-708, looked up)
Lactotransferrin: APRKNVRWCTISQPEWFKCRRWQWRMKKLGAPSITCVRRAFALECIRAIAEKKADAVTLDGGMVFEAGRDPYKLRPVAAEIYGTKESPQTHYYAVAVVKKGSNFQLDQLQGRKSCHTGLGRSAGWIIPMGILRPYLSWTESLEPLQGAVAKFFSASCVPCIDRQAYPNLCQLCKGEGENQCACSSREPYFGYSGAFKCLQDGAGDVAFVKETTVFENLPEKADRDQYELLCLNNSRAPVDAFKECHLAQVPSHAVVARSVDGKEDLIWKLLSKAQEKFGKNKSRSFQLFGSPPGQRDLLFKDSALGFLRIPSKVDSALYLGSRYLTTLKNLRETAEEVKARYTRVVWCAVGPEEQKKCQQWSQQSGQNVTCATASTTDDCIVLVLKGEADALNLDGGYIYTAGKCGLVPVLAENRKSSKHSSLDCVLRPTEGYLAVAVVKKANEGLTWNSLKDKKSCHTAVDRTAGWNIPMGLIVNQTGSCAFDEFFSQSCAPGADPKSRLCALCAGDDQGLDKCVPNSKEKYYGYTGAFRCLAEDVGDVAFVKNDTVWENTNGESTADWAKNLNREDFRLLCLDGTRKPVTEAQSCHLAVAPNHAVVSRSDRAAHVKQVLLHQQALFGKNGKNCPDKFCLFKSETKNLLFNDNTECLAKLGGRPTYEEYLGTEYVTAIANLKKCSTSPLLEACAFLTR
notes: produced by Morinaga Milk Industry Co., Ltd
With B1 the infection-suppressing ratio (0.1 mg/mL) was 8.7% and the infection-suppressing ratio (1.0 mg/mL) was 39%.
